Data as given in paper PMC6881253 (2019).

B1: S1, mutant variant of p21^140–157 (Ac-SESSQTSMTDFYHSKRRL-NH2) (peptide)
chain: Ac-SESSQTSMTDFYHSKRRL-NH2
B2: S2, mutant variant of p21^140–157 (Ac-RKRRQTSMTDFYHSESSL-NH2) (peptide)
chain: Ac-RKRRQTSMTDFYHSESSL-NH2
B3: D1.2, mutant variant of p21^140–157 (Ac-SESSQTSMTDFYHSESSL-NH2) (peptide)
chain: Ac-SESSQTSMTDFYHSESSL-NH2

biological target: N-terminally His6-tagged human PCNA (proliferating cell nuclear antigen) (human, UniProt P12004 1-261); experiment: ITC
Sequence (P12004 whole entry): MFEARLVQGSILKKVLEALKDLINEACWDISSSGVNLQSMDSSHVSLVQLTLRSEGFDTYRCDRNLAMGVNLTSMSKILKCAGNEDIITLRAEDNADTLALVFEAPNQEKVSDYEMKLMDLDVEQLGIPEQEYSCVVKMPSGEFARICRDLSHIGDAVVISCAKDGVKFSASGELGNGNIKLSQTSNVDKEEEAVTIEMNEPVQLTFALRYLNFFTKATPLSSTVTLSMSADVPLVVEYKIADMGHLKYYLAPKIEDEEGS

Binder	Kd [µM]
B1	8.3
B2	0.3
B3	40
